First the molecules themselves.
B1: ALK3-Fc:ALK3-Fc homodimer (human ALK3 ECD fused to human IgG1 Fc) (Fc fusion, UniProt P36894 24-152, looked up)
chain: QNLDSMLHGTGMKSDSDQKKSENGVTLAPEDTLPFLKCYCSGHCPDDAINNTCITNGHCFAIIEEDDQGETTLASGCMKYEGSDFQCKDSPKAQLRRTIECCRTNLCNQYLQPTLPPVVIGPFFDGSIR
notes: not shown: Fc (human IgG1), C-terminal, kept
B2: GDF11 (ligand, human, UniProt O95390 299-407, looked up)
chain: NLGLDCDEHSSESRCCRYPLTVDFEAFGWDWIIAPKRYKANYCSGQCEYMFMQKYPHTHLVQQANPRGSAGPCCTPTKMSPINMLYFNDKQQIIYGKIPGMVVDRCGCS
notes: source: generated in house
B3: BMP4 (ligand, human, UniProt P12644 293-408, looked up)
chain: SPKHHSQRARKKNKNCRRHSLYVDFSDVGWNDWIVAPPGYQAFYCHGDCPFPLADHLNSTNHAIVQTLVNSVNSSIPKACCVPTELSAISMLYLDEYDKVVLKNYQEMVVEGCGCR
notes: source: bought: R&D Systems
B4: BMP9 (ligand, human, UniProt Q9UK05 320-429, looked up)
chain: SAGAGSHCQKTSLRVNFEDIGWDSWIIAPKEYEAYECKGGCFFPLADDVTPTKHAIVQTLVHLKFPTKVGKACCVPTKLSPISVLYKDDMGVPTLKYHYEGMSVAECGCR
notes: source: generated in house
B5: GDF3 (ligand, human, UniProt Q9NR23 251-364, looked up)
chain: AAIPVPKLSCKNLCHRHQLFINFRDLGWHKWIIAPKGFMANYCHGECPFSLTISLNSSNYAFMQALMHAVDPEIPQAVCIPTKLSPISMLYQDNNDNVILRHYEDMVVDECGCG
notes: source: bought: R&D Systems
B6: BMP6 (ligand, human, UniProt P22004 375-513, looked up)
chain: SASSRRRQQSRNRSTQSQDVARVSSASDYNSSELKTACRKHELYVSFQDLGWQDWIIAPKGYAANYCDGECSFPLNAHMNATNHAIVQTLVHLMNPEYVPKPCCAPTKLNAISVLYFDDNSNVILKKYRNMVVRACGCH
notes: source: bought: R&D Systems
B7: BMP7 (ligand, human, UniProt P18075 293-431, looked up)
chain: STGSKQRSQNRSKTPKNQEALRMANVAENSSSDQRQACKKHELYVSFRDLGWQDWIIAPEGYAAYYCEGECAFPLNSYMNATNHAIVQTLVHFINPETVPKPCCAPTQLNAISVLYFDDSSNVILKKYRNMVVRACGCH
notes: source: bought: R&D Systems
B8: activin B (ligand, human, UniProt P09529 293-407, looked up)
chain: GLECDGRTNLCCRQQFFIDFRLIGWNDWIIAPTGYYGNYCEGSCPAYLAGVPGSASSFHTAVVNQYRMRGLNPGTVNSCCIPTKLSTMSMLYFDDEYNIVKRDVPNMIVEECGCA
notes: source: generated in house
B9: activin A (ligand, human, UniProt P08476 311-426, looked up)
chain: GLECDGKVNICCKKQFFVSFKDIGWNDWIIAPSGYHANYCEGECPSHIAGTSGSSLSFHSTVINHYRMRGHSPFANLKSCCVPTKLRPMSMLYYDDGQNIIKKDIQNMIVEECGCS
notes: source: generated in house
B10: BMP10 (ligand, human, UniProt O95393 317-424, looked up)
chain: NAKGNYCKRTPLYIDFKEIGWDSWIIAPPGYEAYECRGVCNYPLAEHLTPTKHAIIQALVHLKNSQKASKACCVPTKLEPISILYLDKGVVTYKFKYEGMAVSECGCR
notes: source: bought: R&D Systems

A value given as a limit tells only on which side of the number the result lay.

Holding throughout (conditions): both partners purified
The target in experiment [1] is B6. Kind of experiment: SPR; Biacore 8K, 37 °C; Fc-fusion receptor dimers captured by anti-human Fc antibody on a CM5 chip (100-150 RU); ligands injected in two-fold dilution series (300 s association, 600 s dissociation); HBS-EP+ supplemented with 350 mM NaCl and 0.5 mg/mL BSA; 1:1 Langmuir model with a term for mass transport.
In experiment [2] the target is T1, IIB-Fc:ALK7-Fc heterodimer (human ActRIIB ECD-Fc paired with human ALK7 ECD-Fc) (human, UniProt Q13705-1 19-134; Q8NER5-1 25-113).
T1 construct: activin receptor type IIB (ActRIIB) extracellular domain, human, aa 19-134 of NP_001097.2; activin receptor-like kinase 7 (ALK7) extracellular domain, human, aa 25-113 of NP_660302.2; copies: 1 + 1
The experiment is described as above.

For experiment [3], the target named is T2, IIB-Fc:ALK4-Fc heterodimer (human ActRIIB ECD-Fc paired with human ALK4 ECD-Fc) (human, UniProt Q13705-1 19-134; P36896-1 24-126).
T2 construct: activin receptor type IIB (ActRIIB) extracellular domain, human, aa 19-134 of NP_001097.2; copies: 1 + 1
Described as above.

Experiment [4] has as its target T3, IIB-Fc:IIB-Fc homodimer (human ActRIIB ECD fused to human IgG1 Fc) (human, UniProt Q13705-1 19-134).
T3 construct: activin receptor type IIB (ActRIIB) extracellular domain, human, aa 19-134 of NP_001097.2; Chains linked by disulfide bonds between the Fc domains; a form with murine IgG2a Fc was used only in mice; also called ActRIIB-Fc homodimer; ActRIIB-Fc; not shown: Fc (human IgG1), C-terminal, kept
The description is as above.

In experiment [5] the target is T4, IIB-Fc:ALK3-Fc heterodimer (human ActRIIB ECD-Fc paired with human ALK3 ECD-Fc) (human, UniProt Q13705-1 19-134; P36894 24-152).
T4 construct: activin receptor type IIB (ActRIIB) extracellular domain, human, aa 19-134 of NP_001097.2; copies: 1 + 1
Described as above.

Experiment [6] has as its target T1, IIB-Fc:ALK7-Fc heterodimer (human …). Kind of experiment: SPR; same experiment as a1 (Biacore 8K, 37 °C, receptor dimers captured by anti-human Fc, HBS-EP+ with 350 mM NaCl added and 0.5 mg/mL BSA) but fitted with a bivalent analyte model (bold cells of Table 1); the first binding step is the one considered.
The target in experiment [7] is T2, IIB-Fc:ALK4-Fc heterodimer (human …). Described as above.
In experiment [8] the target is T4, IIB-Fc:ALK3-Fc heterodimer (human …). Described as above.

T3 sequence (Q13705 19-134): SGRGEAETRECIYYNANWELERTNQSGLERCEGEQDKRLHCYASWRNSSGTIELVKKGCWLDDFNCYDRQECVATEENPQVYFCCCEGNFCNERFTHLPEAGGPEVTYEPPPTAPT
T1 sequence (Q13705 19-134, chain 1 of 2): as the sequence (Q13705 19-134) above
T1 sequence (Q8NER5 25-113, chain 2 of 2): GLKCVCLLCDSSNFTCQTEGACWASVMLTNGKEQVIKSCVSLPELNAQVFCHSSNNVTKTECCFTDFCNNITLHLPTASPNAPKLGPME
T2 sequence (Q13705 19-134, chain 1 of 2): as the sequence (Q13705 19-134) above
T2 sequence (P36896 24-126, chain 2 of 2): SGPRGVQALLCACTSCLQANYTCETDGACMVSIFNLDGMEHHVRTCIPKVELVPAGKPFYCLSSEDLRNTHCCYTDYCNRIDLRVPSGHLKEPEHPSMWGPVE

In experiment [1], B1 displayed a Kd of 9.03 nM, a koff of 0.00569 s⁻¹ and a kon of 600000 M⁻¹ s⁻¹.
Take B2: the Kd in experiment [2] was 0.0474 nM; in experiment [3] it was 0.0108 nM; in experiment [4], 0.0039 nM; in experiment [5], 0.0485 nM. Further, the koff in experiment [2] is 0.000642 s⁻¹; in experiment [3], 0.000164 s⁻¹; in experiment [4] it was 7.56e-05 s⁻¹; in experiment [5], 0.000641 s⁻¹. Also, the kon in experiment [2] is 1.35e+07 M⁻¹ s⁻¹; in experiment [3], 1.52e+07 M⁻¹ s⁻¹; in experiment [4], 1.94e+07 M⁻¹ s⁻¹; in experiment [5], 1.32e+07 M⁻¹ s⁻¹.
As for B3, the Kd in experiment [4] came to 5.43 nM; in experiment [5], 0.0041 nM.
Take B4: the Kd in experiment [4] was 0.0933 nM; in experiment [6], 2.3 nM; in experiment [7] it was 1.36 nM; in experiment [8] it was 1.76 nM. For the same molecule, the koff was 0.0011 s⁻¹ in experiment [4], above 0.01 s⁻¹ in experiment [6], above 0.01 s⁻¹ in experiment [7] and above 0.01 s⁻¹ in experiment [8]. The association rate constant (kon) in experiment [4] was found to be 1.24e+07 M⁻¹ s⁻¹; in experiment [6], 7.1e+06 M⁻¹ s⁻¹; in experiment [7] it was 8.9e+06 M⁻¹ s⁻¹; in experiment [8] it was 9.7e+06 M⁻¹ s⁻¹.
As to B5, the Kd is 0.64 nM in experiment [4], above 10 nM in experiment [6], above 10 nM in experiment [7] and above 10 nM in experiment [8]. The koff in experiment [4] was 0.00188 s⁻¹; in experiment [6], above 0.01 s⁻¹; in experiment [7], above 0.01 s⁻¹; in experiment [8], above 0.01 s⁻¹. Besides, the kon turned out to be 2.9e+06 M⁻¹ s⁻¹ in experiment [4], 1.1e+06 M⁻¹ s⁻¹ in experiment [6], 1.1e+06 M⁻¹ s⁻¹ in experiment [7] and 900000 M⁻¹ s⁻¹ in experiment [8].
Turning to B6, in experiment [2], the Kd came out at 0.715 nM, the koff was found to be 0.00424 s⁻¹ and the kon was 5.9e+06 M⁻¹ s⁻¹. In experiment [3], this molecule showed a Kd of 0.758 nM, a koff of 0.00573 s⁻¹ and a kon of 7.6e+06 M⁻¹ s⁻¹. In experiment [5], this molecule had a Kd of 0.046 nM, an off-rate constant (koff) of 0.000214 s⁻¹ and a kon of 4.6e+06 M⁻¹ s⁻¹.
In experiment [5], B7 came in with a Kd of 0.165 nM, a koff of 0.00197 s⁻¹ and a kon of 1.19e+07 M⁻¹ s⁻¹. Also, in experiment [6], the Kd was above 10 nM, the koff was above 0.01 s⁻¹ and the kon is 700000 M⁻¹ s⁻¹. Further, in experiment [7], the Kd is above 10 nM, the koff is above 0.01 s⁻¹ and the association rate constant (kon) was 800000 M⁻¹ s⁻¹.
Regarding B8, the Kd in experiment [2] is 0.0153 nM; in experiment [3], 0.0153 nM; in experiment [4] it was 0.0038 nM; in experiment [5] it was 0.0696 nM. The koff in experiment [2] came out at 0.000114 s⁻¹; in experiment [3], 8.07e-05 s⁻¹; in experiment [4], 2.19e-05 s⁻¹; in experiment [5], 0.000335 s⁻¹. In addition, the kon in experiment [2] worked out at 7.4e+06 M⁻¹ s⁻¹; in experiment [3] it was 5.3e+06 M⁻¹ s⁻¹; in experiment [4], 5.7e+06 M⁻¹ s⁻¹; in experiment [5], 4.8e+06 M⁻¹ s⁻¹.
Consider B9, for which the Kd in experiment [3] is 0.0184 nM; in experiment [4], 0.0109 nM; in experiment [6] it was 0.41 nM; in experiment [8], 0.164 nM. In addition, the koff in experiment [3] was 0.000139 s⁻¹; in experiment [4], 8.45e-05 s⁻¹; in experiment [6], 0.00815 s⁻¹; in experiment [8], 0.00733 s⁻¹. Moreover, the kon amounted to 7.4e+06 M⁻¹ s⁻¹ in experiment [3], 7.8e+06 M⁻¹ s⁻¹ in experiment [4], 2e+07 M⁻¹ s⁻¹ in experiment [6] and 4.47e+07 M⁻¹ s⁻¹ in experiment [8].
B10: the Kd amounted to 0.0706 nM in experiment [2], 0.067 nM in experiment [3], 0.0065 nM in experiment [4] and 0.0335 nM in experiment [5]. Besides, the koff in experiment [2] is 0.00314 s⁻¹; in experiment [3], 0.0028 s⁻¹; in experiment [4], 0.000121 s⁻¹; in experiment [5] it was 0.000719 s⁻¹. Besides, the kon in experiment [2] was 4.45e+07 M⁻¹ s⁻¹; in experiment [3] it was 4.18e+07 M⁻¹ s⁻¹; in experiment [4] it was 1.86e+07 M⁻¹ s⁻¹; in experiment [5], 2.15e+07 M⁻¹ s⁻¹.
